Substitutions are numbered along the chain they refer to. Names and notes keep the numbering of the source.
T1: cynomolgus monkey IL-33 expressed with a C-terminal hexahistidine tag (cynomolgus monkey)
T1 construct: also called MfIL-33-6His; Mf-IL-33-6His
T1 chain: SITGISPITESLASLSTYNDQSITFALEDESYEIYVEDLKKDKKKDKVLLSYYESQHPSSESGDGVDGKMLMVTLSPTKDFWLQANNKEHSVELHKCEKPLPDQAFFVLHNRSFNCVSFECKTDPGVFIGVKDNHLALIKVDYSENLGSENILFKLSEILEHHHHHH

T2: human IL-33 (R&D Systems, #3625-IL-010/CF) (human, UniProt O95760 112-270)
T2 construct: Commercial recombinant protein; also called hIL-33; interleukin-33
T2 sequence (looked up): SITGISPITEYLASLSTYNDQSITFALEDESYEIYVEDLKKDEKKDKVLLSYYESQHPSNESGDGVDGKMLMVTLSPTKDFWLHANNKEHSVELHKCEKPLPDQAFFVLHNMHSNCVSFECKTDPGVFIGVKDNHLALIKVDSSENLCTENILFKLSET

T3: biotinylated hIL-33 protein (R&D systems, Cat #3625-IL/CF) (human, UniProt O95760 112-270, biotinylated (sites not given))
T3 construct: Same commercial protein as m21, biotin-labelled; also called biotin-hIL-33
T3 sequence (looked up): T2 sequence (looked up)

B1: H4H9672P (antibody, human IgG4, V domains shown)
VH: EVQLVESGGGLVQPGGSLRLSCAASGFTLRSYVMYWVRQGPGKGLEGVSGISGSSGGTYYTDSVKGRFTISRDNSKNTLFLQMNSLRAEDTAVYFCARSVYSTTWYGGFQHWGQGTLVTVSS
VL: DIQMTQSPSSVSVSVGDRVTITCRASQVISSWLAWYQLKPGKAPKLLIYAASSLQSGVPSRFSGSGSGTDFTLTISGLQPEDFAVYYCQQTNSFPLTFGGGTKVEIK
notes: Human IgG4 Fc (H4H)
B2: H4H9675P (antibody, human IgG4, V domains shown)
VH: EVQLVESGGNLEQPGGSLRLSCTASGFTFSRSAMNWVRRAPGKGLEWVSGISGSGGRTYYADSVKGRFTISRDNSKNTLYLQMNSLSAEDTAAYYCAKDSYTTSWYGGMDVWGHGTTVTVSS
VL: DIQMTQSPSSVSASVGDRVTITCRASQGIFSWLAWYQQKPGKAPKLLIYAASSLQSGVPSRFSGSGSGTDFTLTISSLQPEDFAIYYCQQANSVPITFGQGTRLEIK
notes: Human IgG4 Fc (H4H)
B3: H4H9676P (antibody, human IgG4, V domains shown)
VH: EVQLVESGGGLVQPGGSLRLSCSASGFTFSSYAMNWVRQAPGKGLEWVTAISGSGGGTYYADSVKGRFTISRDNSKNSLFLQLNSLRAEDTAVYYCAKQTYTSSWYGGFDIWGQGTMVTVSS
VL: B1 VL with V13A, V28G, I29F, L38Q, K39I, S53R, S63R, G77S, V85T, T91A
notes: Human IgG4 Fc (H4H)
B4: H1M9559N (antibody, mouse IgG1, V domains shown)
VH: QVQLVESGGGVVQPGRSLRLSCAASGFTFSSYGMHWVRQAPGKGLEWVAVIWYDGRNKYYTDSVKGRFTISRDNSKNTLYLQMDSLRAEDTAVYYCARERYISSYYGGFDPWGQGALVTVSS
VL: B2 VL with F30S, L46V, I85T, V94F, I96F, Q100P, R103K, E105D
notes: Human variable domains, mouse IgG1 Fc (H1M)

Biological target: T1, cynomolgus monkey IL-33 expressed with …
Experiment: SPR 25C, pH6.0 chase, mAb captured
Procedure: (§1) Equilibrium dissociation constants (KD values) for IL-33 binding to purified anti-IL-33 monoclonal antibodies were determined using a real-time surface plasmon resonance biosensor using a Biacore 4000 instrument. The Biacore sensor surface was first derivatized by amine coupling with either a polyclonal rabbit anti-mouse antibody (GE, # BR-1008-38) or with a monoclonal mouse anti-human Fc antibody (GE, # BR-1008-39) to capture anti-IL-33 monoclonal antibodies expressed with mouse or with human IgG4 constant regions, respectively. All Biacore binding studies were performed in 0.01M ADA pH 7.4, 0.15M NaCl, 3 mM EDTA, and 0.05% v/v Surfactant Tween-20 (ABS-ET running buffer). […] Association of either hIL-33 or MfIL-33-6His to the captured monoclonal antibody was monitored for 4 minutes and their dissociation in ABS-ET running buffer was monitored for 10 minutes. The effect of reduced pH on the binding of each anti-IL-33 antibody to either hIL-33 or MfIL-33-6His was studied using an in-line pH chase assay format in 0.01M ADA pH 6.0, 0.15M NaCl, 3 mM EDTA, and 0.05% v/v Surfactant Tween-20 (ABS-ET pH6 buffer). To achieve this, association of either hIL-33 or MfIL-33-6His to the captured monoclonal antibody was monitored for 4 minutes in ABS-ET running buffer. Following a 30 second dissociation of either hIL-33 or MfIL-33-6His in ABS-ET running buffer, ABS-ET pH6 buffer was injected for 3 minutes, and the analyte dissociation under the low-pH conditions was measured. All the binding kinetic experiments were performed at both 25° C. and 37° C. Kinetic association (kₐ) and dissociation (kd) constants were determined by fitting the real-time sensorgrams to a 1:1 binding model using Scrubber 2.0c curve fitting software. Binding dissociation equilibrium constants (KD) and dissociative half-lives (t½) were calculated from the kinetic rate constants as: […]

Binder	koff	t½	t½ Ratio (pH 7.4/pH 6.0)
B1	0.00267 s⁻¹	4 min	0.7
B2	0.00156 s⁻¹	7 min	1.2
B3	0.00145 s⁻¹	8 min	0.4
B4	0.00152 s⁻¹	8 min	1.2

Biological target: T2, human IL-33 (R&D Systems, …)
Experiment: SPR 25C, pH6.0 chase, mAb captured
Procedure: as §1

Binder	koff	t½	t½ Ratio (pH 7.4/pH 6.0)
B1	0.00141 s⁻¹	8 min	4
B2	0.00111 s⁻¹	10 min	4.3
B3	0.00121 s⁻¹	10 min	3.5
B4	0.000187 s⁻¹	62 min	0.7

Biological target: T1, cynomolgus monkey IL-33 expressed with …
Experiment: BLI; captured MfIL-33-6His, mAb-1 step with Isotype control
Procedure: (§2) Binding competition between a panel of different anti-IL-33 monoclonal antibodies was determined using a real time, label-free bio-layer interferometry assay on an Octet® HTX biosensor (ForteBio, A Division of Pall Life Sciences). The experiment was performed at 25° C. using a buffer of 0.01M HEPES pH7.4, 0.15M NaCl, 3 mM EDTA, 0.05% v/v Surfactant Tween-20, and 0.1 mg/ml BSA (HBS-ET kinetics buffer) with the plate shaking at a speed of 1000 rpm. […] The antigen-captured biosensors were then saturated with a first anti-IL-33 monoclonal antibody (subsequently referred to as mAb-1) by immersion into wells containing 50 μg/mL solution of mAb-1 for 5 minutes. The biosensors were then dipped into wells containing a 50 μg/mL solution of a second anti-IL-33 monoclonal antibody (subsequently referred to as mAb-2) for 4 minutes. The biosensors were washed in HBS-ET kinetics buffer in between every step of the experiment. The real-time binding response was monitored during the experiment, and the maximum binding response for each binding step was recorded. The response of mAb-2 binding to MfIL-33-6His pre-complexed with mAb-1 was measured, and competitive/non-competitive behavior of different anti-IL-33 monoclonal antibodies with respect to each other was determined.

Binder	mAb-2 Binding to the Pre-complex of mAb-1 & MfIL-33-6xHis
B1	0.25 nm
B2	0.26 nm
B3	0.25 nm
B4	0.21 nm

Biological target: T3, biotinylated hIL-33 protein (R&D …)
Experiment: competition ELISA, 30 pM biotin-hIL-33 on coated hST2-hFc
Procedure: The ability of anti-IL-33 antibodies to block either human IL-33 (hIL-33) or cynomologus monkey IL-33 binding to the human ST2 receptor was measured using a competition sandwich ELISA. […] The antibody/IL-33 mixtures were incubated for 1 hour at room temperature before they were transferred to the hST2-hFc-coated microtiter plates. After incubating for 1 hour at room temperature, the wells were then washed, and plate-bound biotin-hIL-33 was detected with streptavidin conjugated with horse-radish peroxidase (HRP) (Thermo Scientific, Cat # N200), and plate-bound MfIL-33-6His was detected with a HRP conjugated anti-His monoclonal antibody (Qiagen, #34460). All samples were developed with a TMB solution (BD biosciences, #51-2607KC) to produce a colorimetric reaction and then quenched by acidification with 1M sulfuric acid before measuring absorbance at 450 nm on a Victor X5 plate reader. Data analysis was performed using a sigmoidal dose-response model within Prism™ software. […] Percent blockade was calculated as the ratio of the reduction in signal observed in the presence of antibody relative to the difference between the signal with IL-33 alone and background (signal from HRP-conjugated secondary antibody or streptavidin alone). The absorbance measured for the constant concentration of biotin-hIL-33 or MfIL-33-6His alone is defined as 0% blocking and the absorbance measured for no added IL-33 is defined as 100% blocking.

Binder	% Maximum blocking	IC50
B1	63%	440 pM
B2	58%	440 pM
B3	54%	460 pM
B4	88%	140 pM

Biological target: T1, cynomolgus monkey IL-33 expressed with …
Experiment: BLI; mAb-1 on captured MfIL-33-6His
Procedure: as §2

Binder	mAb-1 Binding (nm)
B1	0.56 nm
B2	0.52 nm
B3	0.62 nm
B4	0.5 nm
